Measured values published in paper PMC5630700 (Frontiers in Immunology, 2017).

Target: MARV Musoke NP tagged with FLAG at the N-terminus and His6 at the C-terminus (Wt) (Marburg virus Musoke-80, UniProt P27588)
Test: far-Western, overlay or dot blot
Details: one partner purified

MARV Musoke NP tagged with FLAG at the N-terminus and His6 at the C-terminus (Wt), sequence (P27588 whole entry): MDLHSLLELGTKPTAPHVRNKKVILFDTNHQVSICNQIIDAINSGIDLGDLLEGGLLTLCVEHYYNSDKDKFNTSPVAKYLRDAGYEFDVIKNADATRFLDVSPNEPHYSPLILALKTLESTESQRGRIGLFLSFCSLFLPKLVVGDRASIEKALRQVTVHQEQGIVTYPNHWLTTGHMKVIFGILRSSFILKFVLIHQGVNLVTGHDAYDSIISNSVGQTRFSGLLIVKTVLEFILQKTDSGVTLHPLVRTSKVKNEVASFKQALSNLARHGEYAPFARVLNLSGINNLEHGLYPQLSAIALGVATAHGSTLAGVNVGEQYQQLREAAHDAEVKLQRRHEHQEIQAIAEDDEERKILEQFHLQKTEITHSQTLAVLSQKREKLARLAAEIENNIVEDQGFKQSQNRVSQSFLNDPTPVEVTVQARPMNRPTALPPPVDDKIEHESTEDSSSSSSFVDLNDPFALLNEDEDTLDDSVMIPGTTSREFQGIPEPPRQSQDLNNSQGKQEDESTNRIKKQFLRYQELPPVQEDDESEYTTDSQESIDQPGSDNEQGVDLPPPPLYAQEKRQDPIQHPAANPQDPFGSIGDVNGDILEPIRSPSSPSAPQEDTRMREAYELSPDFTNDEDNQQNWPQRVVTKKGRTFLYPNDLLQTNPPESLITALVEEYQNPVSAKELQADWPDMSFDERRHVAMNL

B1: sdAb D–alkaline phosphatase fusion protein (pecan16) (VHH)
VHH: KVKLQESGGGTVQAGGSLRLSCKASGFTFRSSAMGWYRRAPGQHRIFVGSFSRNEFKYADFAQGRFTISRDNAKNTVSLQMNHVIPEDTAVYYCHEDPYGMESLRYWGQGTQVTVSS
binding result: binds
